Laboratory results taken from patent US20260210939A1, “MODIFIED OLFACTORY RECEPTORS” (GIVAUDAN SA, priority 2022, published 2026).

Molecular target: T1, OR7D4 (Homo sapiens, UniProt Q8NG98, D296E/E302K/G299D)
T1 construct: Improved functional expression of modified OR-genes containing the truncated, optimized C-terminus; expressed in transfected cells
T1 sequence (Q8NG98 with tags, fused parts or gaps D296E/G299D/E302K): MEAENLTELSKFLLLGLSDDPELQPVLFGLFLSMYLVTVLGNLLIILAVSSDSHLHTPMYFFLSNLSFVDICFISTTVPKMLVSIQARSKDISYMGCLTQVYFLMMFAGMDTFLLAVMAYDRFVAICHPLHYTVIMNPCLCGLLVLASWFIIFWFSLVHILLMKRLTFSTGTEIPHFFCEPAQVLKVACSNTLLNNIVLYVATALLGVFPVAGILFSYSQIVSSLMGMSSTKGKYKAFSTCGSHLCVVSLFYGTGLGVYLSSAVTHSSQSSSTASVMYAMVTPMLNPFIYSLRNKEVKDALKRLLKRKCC
Experiment: CRE-luciferase assay, HEK cells expressing OR7D4 (wild-type / modified C-terminus)
Type: cell-based
Conditions: for EC2 (concentration for 2-fold luciferase induction) / EC2 Fold-improvement vs. wild-type / Fold induction luciferase: OR7D4 variant; for EC2 (concentration for 2-fold luciferase induction) / EC2 Fold-improvement vs. wild-type: Androstenone
Excerpt: Random permutations of the general C-terminal sequence RN[KR][EDQ][VMIL][KR]KA[LIV][KRH][KR][LI][LIF][KRG][KR][KR]CC (SEQ ID NO: 822) linked to OR7D4 were generated based on degenerate oligonucleotides for the C-terminal domain. For this experiment, the MfeI/XhoI fragment from pcDNA3.1(+)-mmLucy-FLAG-rho-OR7D4 containing the CMV promoter and the OR coding sequence was used to replace the EcoRI/SalI fragment of pRDVCCB-CMV-dCas9-VPH-2A-Blast (Cellecta, Inc., Mountain View, USA). Complementary degenerate oligonucleotides were then used to replace the coding region of the C-terminal domain of […] (between Bsu36I and NotI). Random clones were selected, sequenced and tested for a correct open reading frame. A total of 55 clones were obtained with the correct open reading frame of […] and a permutation of the general sequence RN[KR][EDQ][VMIL][KR]KA[LIV][KRH][KR][LI][LIF][KRG][KR][KR]CC (SEQ ID NO: 822) as the C-terminal domain. All the different clones were compared to the wild-type sequence by the functional assay in HEK cells with the ligand Androstenone tested in a dose-response test.

Compound	EC2 (concentration for 2-fold luciferase induction) [µM]	EC2 Fold-improvement vs. wild-type	also measured
C[C@]12CCC(=O)C[C@@H]1CC[C@@H]1[C@@H]2CC[C@]2(C)C=CC[C@@H]12 [Androstenone, reference compound]	–	–	Comments on efficacy: 3-fold lower; Fold-improvement potency (changed C-term. vs wild-type): 66; Fold-improvement threshold (changed C-term. vs wild-type): 265
C[C@]12CC[C@@H](O)C[C@@H]1CC[C@@H]1[C@@H]2CC[C@]2(C)C=CC[C@@H]12 [androstenol, reference compound]	–	–	activation of OR7D4 variants (wild-type vs SEQ ID NO: 86): can only activate the modified version of the receptor
SEQ ID NO: 254 (RNREMRKALHRLLGKKCC; source 1..18: note = C-terminal domain sequence)	0.011	156.27	–
SEQ ID NO: 255 (RNREVKKAIHKLIGRKCC; source 1..18: note = C-terminal domain sequence)	0.010	164.23	–
SEQ ID NO: 256 (RNREVRKAVHRLFKRKCC; source 1..18: note = C-terminal domain sequence)	0.004	385.42	–
SEQ ID NO: 257 (RNKEMKKAIHKLFGKKCC; source 1..18: note = C-terminal domain sequence)	0.010	172.96	–
SEQ ID NO: 258 (RNRDVKKAVHKLFRRKCC; source 1..18: note = C-terminal domain sequence)	0.011	152.59	–
SEQ ID NO: 259 (RNRDMKKAVHKLFGKRCC; source 1..18: note = C-terminal domain sequence)	0.020	84.30	–
SEQ ID NO: 260 (RNKELRKALHKLLGRKCC; source 1..18: note = C-terminal domain sequence)	0.043	39.74	–
SEQ ID NO: 261 (RNRDVRKALRRILRRRCC; source 1..18: note = C-terminal domain sequence)	0.004	427.69	–
SEQ ID NO: 262 (RNKDVRKAVRKLIRRRCC; source 1..18: note = C-terminal domain sequence)	0.010	165.32	–
SEQ ID NO: 263 (RNRDVRKAVRRLFRKRCC; source 1..18: note = C-terminal domain sequence)	0.006	304.87	–
SEQ ID NO: 264 (RNKDIKKAVKKLIKKKCC; source 1..18: note = C-terminal domain sequence)	0.048	36.01	Fold induction luciferase (0.1 μM Androstenone): 3.79; Fold induction luciferase (1 μM Androstenone): 23.26
SEQ ID NO: 265 (RNRELRKAVRRLFKRRCC; source 1..18: note = C-terminal domain sequence)	0.022	78.45	–
SEQ ID NO: 266 (RNKELRKAVRKIIKKKCC; source 1..18: note = C-terminal domain sequence)	0.041	41.85	–
SEQ ID NO: 267 (RNRDVKKAVRRLFRRKCC; source 1..18: note = C-terminal domain sequence)	0.006	266.97	–
SEQ ID NO: 268 (RNREVRKALRRIIRKRCC; source 1..18: note = C-terminal domain sequence)	0.003	545.04	–
SEQ ID NO: 269 (RNKDIRKAVKKIFRRKCC; source 1..18: note = C-terminal domain sequence)	0.026	65.26	–
SEQ ID NO: 270 (RNKDVRKAVRRLIKRKCC; source 1..18: note = C-terminal domain sequence)	0.012	145.78	–

Compound	EC2 (concentration for 2-fold luciferase induction) [µM]	EC2 Fold-improvement vs. wild-type	also measured
SEQ ID NO: 271 (RNRDLRKAVRKLFKKKCC; source 1..18: note = C-terminal domain sequence)	0.030	56.86	–
SEQ ID NO: 272 (RNRDLRKALRRIFKRRCC; source 1..18: note = C-terminal domain sequence)	0.013	136.52	–
SEQ ID NO: 273 (RNRDVRKAIKKLIRKRCC; source 1..18: note = C-terminal domain sequence)	0.005	373.12	–
SEQ ID NO: 274 (RNKELKKAIKRILKKKCC; source 1..18: note = C-terminal domain sequence)	0.095	18.20	–
SEQ ID NO: 275 (RNRDVRKAIRKLLKRKCC; source 1..18: note = C-terminal domain sequence)	0.005	323.20	–
SEQ ID NO: 276 (RNRDLRKAVRRIFKKRCC; source 1..18: note = C-terminal domain sequence)	0.034	50.55	–
SEQ ID NO: 277 (RNRDVRKAVRKLFKRRCC; source 1..18: note = C-terminal domain sequence)	0.005	325.72	–
SEQ ID NO: 278 (RNRDVRKALRRLFKKRCC; source 1..18: note = C-terminal domain sequence)	0.003	522.64	–
SEQ ID NO: 279 (RNKELKKALRKLIGKKCC; source 1..18: note = C-terminal domain sequence)	0.098	17.53	–
SEQ ID NO: 280 (RNREMRKAIKKIIKKKCC; source 1..18: note = C-terminal domain sequence)	0.009	187.06	–
SEQ ID NO: 281 (RNKEIKKAIKKIIKKRCC; source 1..18: note = C-terminal domain sequence)	0.029	60.06	–
SEQ ID NO: 282 (RNRDVKKAIRRLFRRRCC; source 1..18: note = C-terminal domain sequence)	0.007	250.61	–
SEQ ID NO: 283 (RNREVKKAVKKLIGKRCC; source 1..18: note = C-terminal domain sequence)	0.013	128.83	–
SEQ ID NO: 284 (RNREMRKALRRLFRKRCC; source 1..18: note = C-terminal domain sequence)	0.003	545.04	–
SEQ ID NO: 285 (RNKELKKALRRLIGRRCC; source 1..18: note = C-terminal domain sequence)	0.042	41.00	Fold induction luciferase (0.1 μM Androstenone): 3.18; Fold induction luciferase (1 μM Androstenone): 22.10
SEQ ID NO: 286 (RNRDVKKALRKLIGKRCC; source 1..18: note = C-terminal domain sequence)	0.003	545.04	–
SEQ ID NO: 287 (RNREVKKAVKKLIRRKCC; source 1..18: note = C-terminal domain sequence)	0.012	144.06	–
SEQ ID NO: 288 (RNKEVRKALKKLFGKKCC; source 1..18: note = C-terminal domain sequence)	0.006	294.52	Fold induction luciferase (0.1 μM Androstenone): 17.84; Fold induction luciferase (1 μM Androstenone): 28.81
SEQ ID NO: 289 (RNKEIRKALRRLFGKKCC; source 1..18: note = C-terminal domain sequence)	0.014	119.65	–
